Test results: patent US20250011448A1 (STAIDSON BIOPHARMA, published 2025)
Substitutions are numbered along the chain they refer to. Each block holds one binder with its values, some of them ahead of it.

Legend:
[1] = biological target: T1, human TNFR2 extracellular domain with C-terminal 10×His tag (human, UniProt P20333 23-257); test: BLI (Octet RED96), antibody captured on AHC biosensor, His-tagged TNFR2 in solution, 1:1 model
T1 construct: also called huTNFR2-His; His-tag-huTNFR2
T1 sequence: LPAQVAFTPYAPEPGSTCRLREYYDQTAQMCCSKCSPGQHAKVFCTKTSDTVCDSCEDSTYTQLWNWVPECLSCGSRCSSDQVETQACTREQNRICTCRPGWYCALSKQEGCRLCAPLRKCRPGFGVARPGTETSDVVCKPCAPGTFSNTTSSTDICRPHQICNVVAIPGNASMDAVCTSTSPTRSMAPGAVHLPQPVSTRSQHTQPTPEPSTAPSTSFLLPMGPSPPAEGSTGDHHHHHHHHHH

[2] = biological target: T2, cynomolgus monkey TNFR2 extracellular domain with C-terminal 10×His tag (cynomolgus monkey, UniProt P20333 23-257 (human entry)); test: as above
T2 construct: also called cynoTNFR2-His; His-tag-cynoTNFR2
T2 chain: T1 sequence with S16G, S36P, P117Q, N164H, E210A, S216G, M223V

[3] = biological target: T1, human TNFR2 extracellular domain with …; test: ELISA, plate coated with His-tagged TNFR2 ECD, serial dilution of chimeric IgG
Experimental: (§1) TNFR2 binding of purified recombinant chimeric antibodies: The huTNFR2, cynoTNFR2 antigen binding ELISA was performed on the purified recombinant chimeric antibodies. Briefly, 384-well, clear, flat bottom, high binding plates (VWR, cat #29444-096) were coated overnight at 4° C. with 1 μg/mL of huTNFR2 or cynomolgus monkey TNFR2-His in PBS. After removing the coating solution, the plates were blocked by adding blocking buffer and incubated at room temperature for 1 hour. Plates were then washed 3 times with wash buffer. Serial dilution of purified antibodies in PBS was added to individual well followed by incubation at room temperature for 1 hour. Plates were washed 3 times with wash buffer. Then 50 μL/well of goat anti hu Kappa —AP (Southern Biotech, cat #2061-04) at 1:3000 dilution or goat anti human IgG Fc-AP at 1:3000 dilution in ELISA diluent was added, incubated at room temperature for 1 hour, washed 5 times with wash buffer and developed for 30 minutes with 50 μL/well of pNPP substrate. Plates were analyzed with a Bio-TEK at 405 nm. The chimeric TNFR2 antibodies were tested positive for binding to huTNFR2 and cynoTNFR2. The TNFR2 binding EC50 values are shown in Table 6, FIG. 1A (for huTNFR2) and FIG. 1B (for cynoTNFR2).

[4] = biological target: T2, cynomolgus monkey TNFR2 extracellular …; test: as above
Experimental: as §1

[5] = biological target: T3, human TNFR2 expressed on cells (Expi293 cells stably expressing huTNFR2) (human, UniProt P20333 23-461); test: flow cytometry on Expi293 cells stably expressing huTNFR2
T3 construct: whole, on cells; Also used here as the target of the Treg assay (native TNFR2 on human primary Treg cells); also called huTNFR2 expressed cells; Expi293-TNFR2 cells
T3 sequence (looked up): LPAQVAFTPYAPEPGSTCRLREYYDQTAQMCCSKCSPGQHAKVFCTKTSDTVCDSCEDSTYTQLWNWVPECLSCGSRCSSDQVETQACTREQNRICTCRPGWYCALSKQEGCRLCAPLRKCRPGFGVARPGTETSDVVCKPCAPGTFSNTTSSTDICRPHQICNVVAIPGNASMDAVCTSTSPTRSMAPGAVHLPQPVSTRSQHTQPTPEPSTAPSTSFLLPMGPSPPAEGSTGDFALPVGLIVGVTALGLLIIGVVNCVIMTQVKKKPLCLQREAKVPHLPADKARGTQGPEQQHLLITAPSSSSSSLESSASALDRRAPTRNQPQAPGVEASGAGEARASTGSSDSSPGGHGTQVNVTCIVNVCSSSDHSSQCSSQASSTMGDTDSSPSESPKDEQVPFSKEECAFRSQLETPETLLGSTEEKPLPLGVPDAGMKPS
Experimental: The coding sequence of huTNFR2 (Uniprot, P20333) was cloned into a lentiviral vector and the virus was packaged according to the instruction of the virus packaging kit (Lenti-X™ Packaging Single Shots, Cat #631275, Takada). The Expi293 cells were transduced with the recombinant virus and selected by puromycin. The cell line stably expressing huTNFR2 was incubated with anti-TNFR2 antibodies in PBS with 0.5% BSA, 1 mM EDTA, and 0.1% sodium azide (FACS buffer) for 30 minutes at 4° C. The cells were washed, and then incubated with 10 nM phycoerythrin (PE) conjugated anti-Human Fe Ab (Biolegend, cat #409304) for 20 minutes at 4° C. Cells were washed and then […] by flow cytometry with Attune (ThermoFisher Scientific). Data were analyzed with FlowJo software. Antibody binding is represented as median fluorescence intensity (MFI).
As shown by the results in Table 9 and FIG. 4A, the anti-TNFR2 antibodies, 51B5, 102E4, 85G8.4, 29G3, 11C1, and 15H10 bind to Expi293-TNFR2 cells dose-dependently and potently.

Kd [1]: 0.453 nM
koff [1]: 2.58e-05 s⁻¹
kon [1]: 57100 M⁻¹ s⁻¹
Kd [2]: 1.42 nM
koff [2]: 0.000368 s⁻¹
kon [2]: 259000 M⁻¹ s⁻¹
EC50 [3]: 0.051 nM
EC50 [4]: 0.05 nM
EC50 [5]: 2.52 nM
B1: 15H10 chimeric anti-TNFR2 antibody (antibody, V domains shown)
VH: DVQLQESGPGLVTPSQSLSLTCSVTGYSITSGYYWNWIRQFPGNKLEWMGYITYDGNNNYNPSLKSRFSITRDTSKNQFFLKLNSVTSEDTATYYCARGDYGDSAMDYWGQGTSVTVSS
VL: EIVLTQSPAITAASLGQKVTITCSASSGVNYMHWYQQKSGTSPKPWIYEISKLASGVPARFSGSGSGTSYSLTISSMEAEDAAIYYCQQWNYPLITFGAGTKVELK
notes: Chimeric: mouse variable domains with human constant regions, made as recombinant IgG1

Kd [1]: 2.46 nM
koff [1]: 0.000258 s⁻¹
kon [1]: 105000 M⁻¹ s⁻¹
EC50 [3]: 0.0508 nM
EC50 [4]: 0.057 nM
EC50 [5]: 2.04 nM
B2: 11C1 chimeric anti-TNFR2 antibody (antibody, V domains shown)
VH: B1 VH with Q5R, F41I, N61D, S66N, F68I, K82T
VL: B1 VL with G28S, N30S, T73I, V103L
notes: as for B1

Kd [1]: 1.95 nM
koff [1]: 0.000251 s⁻¹
kon [1]: 129000 M⁻¹ s⁻¹
Kd [2]: 1.3 nM
koff [2]: 0.000534 s⁻¹
kon [2]: 412000 M⁻¹ s⁻¹
EC50 [3]: 0.039 nM
EC50 [4]: 0.0488 nM
EC50 [5]: 1.47 nM
B3: 85G8.4 chimeric anti-TNFR2 antibody (antibody, V domains shown)
VH: EVQLQQSGPELVKPGASVKISCKTSGYTFTDFNMDWVKQSHGKSLEWIGYINPNNGDAAYNQKFKSKATLTVDKSSNTAYMELHSLTSDDSAVYYCARWGWAFAYWGQGTLVTVSA
VL: DIVMTQSHKIMSTSVGDRVSITCKASQDVKTAVAWYQQKPGQSPKLLIYATSYRYTGVPDRFTGSGSGTDFTFTISTVQAEDLAVYYCQQHYSIPYTFGGGTKLEIK
notes: as for B1

Kd [1]: 4.53 nM
koff [1]: 0.00114 s⁻¹
kon [1]: 251000 M⁻¹ s⁻¹
Kd [2]: 1.59 nM
koff [2]: 0.002 s⁻¹
kon [2]: 1.26e+06 M⁻¹ s⁻¹
EC50 [3]: 0.0293 nM
EC50 [4]: 0.0414 nM
EC50 [5]: 0.654 nM
B4: 29G3 chimeric anti-TNFR2 antibody (antibody, V domains shown)
VH: EVMLVESGGASVKPGGSLKLSCAASGFTFSNFAMSWVRQTPEKRLEWVATIRSGDNYSYYSDNVKGRFTISRDNARNTLYLQMSSLRSKDTSIYYCARNWDKVFDYWGQGTTLTVSS
VL: DIVLTQSPASLAVSLGQRATISCRASESVDSYGYSFMHWYQQKPGQPPKLLIYRASNLKSGIPARFSGSGSRTDFTLTINPVEADDVATYYCQQSNEDHTFGGGTKLEIK
notes: as for B1
